Conditions in all cases: protein: recombinant; tags: untagged; copies: 1;1;1
Series [1] concerns the target T1, RPA heterotrimer (RPA1-RPA2-RPA3), WT (Homo sapiens, UniProt P27694;P15927;P35244 1-616;1-270;1-121). Kind of series: fluorescence microscopy, co-partitioning into RPA droplets; equimolar; not enriched in droplets; Droplet assay buffer and temperature not in material; protein stored in diluted Sorensen phosphate buffer (43.4 mM Na2HPO4, 6.6 mM KH2PO4) pH 7.6, 150 mM KCl, 25 uM EDTA, 1 mM DTT.

Series [2] has as its target T1, RPA heterotrimer (RPA1-RPA2-RPA3), WT. Kind of series: fluorescence microscopy, co-partitioning into RPA droplets; equimolar; co-assembly, indirect evidence of binding; Droplet assay buffer and temperature not in material; protein stored in diluted Sorensen phosphate buffer (43.4 mM Na2HPO4, 6.6 mM KH2PO4) pH 7.6, 150 mM KCl, 25 uM EDTA, 1 mM DTT.
Series [3] has the same target. Kind of series: fluorescence microscopy, co-partitioning into RPA droplets; equimolar; Droplet assay buffer and temperature not in material; protein stored in diluted Sorensen phosphate buffer (43.4 mM Na2HPO4, 6.6 mM KH2PO4) pH 7.6, 150 mM KCl, 25 uM EDTA, 1 mM DTT.

T1 sequence (P27694 whole entry, chain 1 of 3): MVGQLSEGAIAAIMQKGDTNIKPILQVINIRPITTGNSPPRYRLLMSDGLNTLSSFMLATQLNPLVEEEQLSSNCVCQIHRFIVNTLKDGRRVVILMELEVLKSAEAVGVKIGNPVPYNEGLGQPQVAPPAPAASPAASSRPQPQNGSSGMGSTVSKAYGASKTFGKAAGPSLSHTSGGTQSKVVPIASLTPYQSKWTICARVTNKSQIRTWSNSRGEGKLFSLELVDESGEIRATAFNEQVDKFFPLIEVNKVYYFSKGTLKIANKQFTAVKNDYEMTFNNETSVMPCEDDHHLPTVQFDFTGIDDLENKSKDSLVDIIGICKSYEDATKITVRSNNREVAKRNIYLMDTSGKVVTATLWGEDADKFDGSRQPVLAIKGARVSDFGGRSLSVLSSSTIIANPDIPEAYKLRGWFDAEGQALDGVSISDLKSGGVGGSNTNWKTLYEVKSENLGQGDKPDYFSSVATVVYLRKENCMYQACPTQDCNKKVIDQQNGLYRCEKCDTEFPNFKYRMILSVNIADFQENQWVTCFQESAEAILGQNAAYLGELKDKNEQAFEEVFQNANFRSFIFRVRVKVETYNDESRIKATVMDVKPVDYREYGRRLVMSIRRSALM
T1 sequence (P15927 whole entry, chain 2 of 3): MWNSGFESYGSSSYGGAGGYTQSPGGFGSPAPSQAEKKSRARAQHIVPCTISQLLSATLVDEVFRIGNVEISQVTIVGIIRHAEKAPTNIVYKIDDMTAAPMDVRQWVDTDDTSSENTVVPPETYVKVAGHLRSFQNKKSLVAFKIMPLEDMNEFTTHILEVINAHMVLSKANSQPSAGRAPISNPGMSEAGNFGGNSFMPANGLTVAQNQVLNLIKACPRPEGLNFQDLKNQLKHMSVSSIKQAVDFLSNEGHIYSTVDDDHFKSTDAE
T1 sequence (P35244 whole entry, chain 3 of 3): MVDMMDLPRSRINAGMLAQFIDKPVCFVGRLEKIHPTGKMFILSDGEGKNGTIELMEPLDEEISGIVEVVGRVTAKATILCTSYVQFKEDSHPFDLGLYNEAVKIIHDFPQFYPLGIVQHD

Turning to AGUCGUCGCUGCCAUAGCUUUCGAAUCCACUGUUCCACAU (ssRNA) [Cy3-40nt ssRNA], the binding result in series [1] is recorded as “no binding”. Consider AATTGTTATCCGCTCAC (ssDNA) [FAM-17nt ssDNA], for which the binding result in series [2] was “binds”. In the case of ATGTGGAACAGTGGATTCGAAAGCTATGGCAGCGACGACT (ssDNA) [Cy3-40nt ssDNA], the binding result in series [3] is reported as “binds”. Regarding ATGTGGAACAGTGGATTCGAAAGCTATGGCAGCGACGACT (ssDNA) [FAM-40nt ssDNA], the binding result in series [3] is “binds”.
